In patent US8043804:

Sequence of acetylated p53, P04637 (P04637 whole entry, looked up): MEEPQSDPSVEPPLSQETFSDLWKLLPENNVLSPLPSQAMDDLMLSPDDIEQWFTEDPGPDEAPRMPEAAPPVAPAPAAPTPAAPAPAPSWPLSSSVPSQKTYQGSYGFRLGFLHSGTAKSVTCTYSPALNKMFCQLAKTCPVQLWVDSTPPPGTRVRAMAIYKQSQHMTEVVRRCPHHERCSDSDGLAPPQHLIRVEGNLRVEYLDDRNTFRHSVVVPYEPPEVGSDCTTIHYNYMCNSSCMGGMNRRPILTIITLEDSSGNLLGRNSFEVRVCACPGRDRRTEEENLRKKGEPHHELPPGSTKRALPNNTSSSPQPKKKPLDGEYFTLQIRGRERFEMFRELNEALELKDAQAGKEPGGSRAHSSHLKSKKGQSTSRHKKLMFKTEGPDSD

Protein	in vitro deacetylation assay (acetylated tubulin)	in vitro deacetylation assay (Western blot for acetylated p53) (acetylated p53, P04637)
Flag-SIRT2 (protein) MAEPDPSHPLETQAGKVQEAQDSDSDSEGGAAGGEADMDFLRNLFSQTLSLGSQKERLLDELTLEGVARYMQSERCRRVICLVGAGISTSAGIPDFRSPSTGLYDNLEKYHLPYPEAIFEISYFKKHPEPFFALAKELYPGQFKPTICHYFMRLLKDKGLLLRCYTQNIDTLERIAGLEQEDLVEAHGTFYTSHCVSASCRHEYPLSWMKEKIFSEVTPKCEDCQSLVKPDIVFFGESLPARFFSCMQSDFLKVDLLLVMGTSLQVQPFASLISKAPLSTPRLLINKEKAGQSDPFLGMIMGLGGGMDFDSKKAYRDVAWLGECDQGCLALAELLGWKKELEDLVRREHASIDAQSGAGVPNPSTSASPKKSPPPAKDEARTTEREKPQ	deacetylation of tubulin was observed when the purified SIRT2 protein was incubated with acetylated tubulin	
Flag-SIRT1 (protein) MADEAALALQPGGSPSAAGADREAASSPAGEPLRKRPRRDGPGLERSPGEPGGAAPEREVPAAARGCPGAAAAALWREAEAEAAAAGGEQEAQATAAAGEGDNGPGLQGPSREPPLADNLYDEDDDDEGEEEEEAAAAAIGYRDNLLFGDEIITNGFHSCESDEEDRASHASSSDWTPRPRIGPYTFVQQHLMIGTDPRTILKDLLPETIPPPELDDMTLWQIVINILSEPPKRKKRKDINTIEDAVKLLQECKKIIVLTGAGVSVSCGIPDFRSRDGIYARLAVDFPDLPDPQAMFDIEYFRKDPRPFFKFAKEIYPGQFQPSLCHKFIALSDKEGKLLRNYTQNIDTLEQVAGIQRIIQCHGSFATASCLICKYKVDCEAVRGDIFNQVVPRCPRCPADEPLAIMKPEIVFFGENLPEQFHRAMKYDKDEVDLLIVIGSSLKVRPVALIPSSIPHEVPQILINREPLPHLHFDVELLGDCDVIINELCHRLGGEYAKLCCNPVKLSEITEKPPRTQKELAYLSELPPTPLHVSEDSSSPERTSPPDSSVIVTLLDQAAKSNDDLDVSESKGCMEEKPQEVQTSRNVESIAEQMENPDLKNVGSSTGEKNERTSVAGTVRKCWPNRVAKEQISRRLDGNQYLFLPPNRYIFHGAEVYSDSEDDVLSSSSCGSNSDSGTCQSPSLEEPMEDESEIEEFYNGLEDEPDVPERAGGAGFGTDGDDQEAINEAISVKQEVTDMNYPSNKS		deacetylation of p53 was observed when the Flag-SIRT1 protein was incubated with acetylated p53
